Measured values from PMC11251522.

What was measured:
Sox2 HMG (human) = Sox2 HMG (human) (UniProt P48431); test: fluorescence anisotropy; conditions: FP at 4°C, ERα: 20 mM Tris pH 7.5 (at 25°C), 100 mM NaCl, 5% glycerol, 0.01% IGEPAL, Sox2: 10 mM Tris pH 7.5 (at 25°C), 135 mM KCl, 15 mM NaCl, 0.1 mg/mL BSA …
ERα DBD-Ext (human) = test: fluorescence anisotropy; conditions: apparent, FP at 4°C, ERα: 20 mM Tris pH 7.5 (at 25°C), 100 mM NaCl, 5% glycerol, 0.01% IGEPAL, Sox2: 10 mM Tris pH 7.5 (at 25°C), 135 mM KCl, 15 mM NaCl, 0.1 mg/mL BSA …

Sequence of Sox2 HMG (human) (P48431 40-123): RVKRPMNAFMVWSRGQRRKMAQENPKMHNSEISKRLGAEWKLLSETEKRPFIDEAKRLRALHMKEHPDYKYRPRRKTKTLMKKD

NBS dsDNA (19 bp) was tested, and the Kd (Sox2 HMG (human); apparent, Hill n 0.57) was 29 nM.

ERE dsDNA (18 bp) showed a Kd (ERα DBD-Ext (human); Hill n 2.1) of 11 nM.

hRNA (43 nt) showed a Kd (Sox2 HMG (human); apparent, Hill n 1.1) of 53 nM.

In the case of ΔERE dsDNA (15 bp, half-site), the Kd (ERα DBD-Ext (human); Hill n 1.5, about half the ligand concentration, true Kd may be lower) is reported as 2.8 nM.

With XBP1 hRNA (37 nt) the Kd (ERα DBD-Ext (human); Hill n 0.91) was 370 nM.

CBS dsDNA (10 bp) was tested, and the Kd (Sox2 HMG (human); printed ≤1, first (high-affinity) transition, 54% of signal) was under 1 nM and the Kd (Sox2 HMG (human); second (low-affinity) transition) was 420 nM.
